This assay has as its target FLAG-tagged Sig-1R, Q99720. Nature of the assay: co-immunoprecipitation (IP: V5, Western blot for FLAG, quantified). To be noted: chain shown with the change; n = 4; parent: est. 100; read off a plot.

The source of these data is paper PMC3799859.

Sequence of FLAG-tagged Sig-1R, Q99720 (Q99720 whole entry): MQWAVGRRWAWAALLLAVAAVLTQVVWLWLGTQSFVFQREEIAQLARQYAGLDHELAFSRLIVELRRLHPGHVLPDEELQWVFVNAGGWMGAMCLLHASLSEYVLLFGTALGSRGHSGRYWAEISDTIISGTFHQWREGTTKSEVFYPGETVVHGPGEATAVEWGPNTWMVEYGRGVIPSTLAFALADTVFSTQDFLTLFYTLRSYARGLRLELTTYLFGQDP

B1: ΔIRE1-V5/His (ER lumenal domain of human IRE1), O75460 D123P (protein)
chain: IFGSTSTVTLPETLLFVSTLDGSLHAVSKRTGSIKWTLKEDPVLQVPTHVEEPAFLPDPNDGSLYTLGSKNNEGLTKLPFTIPELVQASPCRSSDGILYMGKKQPIWYVIDLLTGEKQQTLSSAFADSLCPSTSLLYLGRTEYTITMYDTKTRELRWNATYFDYAASLPEDDVDYKMSHFVSNGDGLVVTVDSESGDVLWIQNYASPVVAFYVWQREGLRKVMHINVAVETLRYLTFMSGEVGRITKWKYPFPKETEAKSKLTPTLYVGKYSTSLYASPSMVHEGVAVVPRGSTLPLLEGPQTDGVTIGDKGECVITPSTDVKFDPGLKSKNKLNYLRNYWLLIGHHETPLSASTKMLERFPNNLPKHRENVIPADSEKKSFEEVINLVDQTSENAPTTVSRDVEEKPAHAPARPEAPVDSMLKD
With B1, the percent of parent was 190%.
